Data set [1] can be described thus: Thermostability assay of detergent-solubilised βAR34-424 and mutants expressed in E. coli ([3H]-DHA binding after heating 30 min). The settings on record: for increase in Tm compared to βAR34-424 (native protein) / Tm (° C.): DDM-solubilised; for increase in Tm compared to βAR34-424 (native protein): heated without ligand; for Tm (° C.): heated 30 min without ligand, then [3H]-DHA binding, E. coli, mean ± S.E. from duplicates.
Experimental: To determine Tm in the absence of ligand (apo-state, discontinuous lines), detergent-solubilised receptors were incubated for 30 minutes at the temperatures indicated before carrying out the binding assay. […] Data points are from duplicates measurements in a representative experiment.
Binding assays were performed using [^3H]-dihydroalprenolol (DHA) as radioligand as described under “Methods”. Samples were heated for 30 minutes at different temperatures before the assay. […] Data points are from duplicates of one single experiment. This experiment has been repeated several times with similar results.
Expression of βAR and the mutants was performed in XL10 cells (Stratagene). Cultures of 50 ml of 2×TY medium containing ampicillin (100 μg/ml) were grown at 37° C. with shaking until OD600=3 and then induced with 0.4 mM IPTG. Induced cultures were incubated at 25° C. for 4 h and then cells were harvested by centrifugation at 13,000×g for 1 min (aliquots of 2 ml) and stored at −20° C. For the assays, cells were broken by freeze-thaw (five cycles), resuspended in 500 μl of buffer [20 mM Tris pH 8, 0.4 M NaCl, 1 mM EDTA and protease inhibitors (Complete™, Roche)]. After an incubation for 1 h at 4° C. with 100 μg/ml lysozyme and DNase I (Sigma), samples were solubilized with 2% DDM on ice for 30 minutes. Insoluble material was removed by centrifugation (15,000×g, 2 min, 4° C.) and the supernatant was used directly in radioligand binding assays.
Single point binding assays contained 20 mM Tris pH 8, 0.4 M NaCl, 1 mM EDTA, 0.1% DDM (or corresponding detergent) with 50 nM [^3H]-DHA and 20-100 μg membrane protein in a final volume of 120 μl; equilibration was for 1 h at 4° C. Thermostability was assessed by incubating the binding assay mix, with or without [^3H]-DHA at the specified temperature for 30 minutes; reactions were placed on ice and [^3H]-DHA added as necessary and equilibrated for a further hour. […] Radioactivity was counted on a Beckman LS6000 liquid scintillation counter and data were analyzed by nonlinear regression using Prism software (GraphPad).

The nature of data set [2]: Thermostability of solubilised adenosine A2a receptor and mutants (radioligand binding after or during heating). Format: physicochemical. The settings on record: for Tm (° C.) − agonist / Tm (° C.) − antagonist / Tm (° C.) + agonist / Tm (° C.) + antagonist: 1% DDM (no glycerol), S.D. <1° C.; for Tm (° C.) − agonist / Tm (° C.) − antagonist: apo-state; for Tm (° C.) + agonist / Tm (° C.) + antagonist: ligand-occupied state; for thermostability measured with 3H-NECA (agonist): Ligand(−) format, binding after the heating step. The source says: FIG. 12 Flow chart showing the two different assay formats of ligand (+) and ligand (−) used to determine receptor thermostablity.
• 1. 315 site-directed mutants made between residues 2-316 of A2aR. • 2. All of these mutants have been assayed for thermostability using an assay measuring agonist and antagonist binding after the heating step (Ligand(−) format as described in FIG. 12). • a. […] Mutations have been combined to generate mutants in a putative antagonist conformation. Wildtype A2aR has a Tm of 31° C. with ZM241385 bound. • a. Rant17 A54L+K122A+L235A Tm 48° C. (ZM241385 bound) • b. Rant19 A54L,T88A,V239A+A204L Tm 47° C. (ZM241385 bound) • c. Rant21 A54L,T88A,V239A+K122A Tm 49° C. (ZM241385 bound) • 4. Mutations from the agonist screen have been combined, but have led to only a very low level of improvement in Tm of +2° C.

Data set [3] in a line: Stability of wild-type and mutant A2aR in different detergents. It is filed as physicochemical.
The mark [4] stands for this setting: 0.3% NG, † = receptor too unstable to determine the Tm.

Consider 26 molecules from patent US8748182B2, “Mutant proteins and methods for producing them” (Heptares Therapeutics Limited, priority 2007, dated 2014).

Regarding M90A: βAR34-424 point mutant M90A, in data set [1], the “increase in Tm compared to βAR34-424 (native protein)” value (“increase in Tm … (native protein)” for short) was found to be 8 °C.
Regarding Y227A: βAR34-424 point mutant Y227A, the “increase in Tm … (native protein)” value in data set [1] amounted to 8 °C.
Take m4-7: βAR34-424 with G67A, G98A, V230A: in data set [1] (Table 1), the “Tm (° C.)” value was found to be 38.0 ± 1.2 °C. In addition, in data set [1] (m4-1 to m4-7 to m4-2, m18 to m23), the “further increase in Tm on adding one mutation to the preceding mutant” value worked out at 2 °C.
As to “m6-4: βAR34-424 with R68S, Y227A, A234L, A282L”, in data set [1] (Table 1), the “Tm (° C.)” value is 41.6 ± 0.1 °C.
For “m6-5: βAR34-424 with R68S, A234L, A282L, A334L”, in data set [1] (Table 1), the “Tm (° C.)” value was 41.9 ± 0.5 °C.
For “m6-9: βAR34-424 with R68S, Y227A, A234L, A282L, A334L”, the “Tm (° C.)” value in data set [1] (Table 1) was 43.7 ± 0.4 °C.
As to “m6-10: βAR34-424 with R68S, Y227A, A282L, A334L”, the “Tm (° C.)” value in data set [1] (Table 1) turned out to be 47.4 ± 1.1 °C.
On to “m6-11: βAR34-424 with R68S, A282L, A334L”, for which the “Tm (° C.)” value in data set [1] (Table 1) came out at 39.1 ± 0.5 °C.
Same read-out and setting: next, m7-1: βAR34-424 with M90V, A282L, F338M: 43.0 ± 0.8 °C; m7-2: βAR34-424 with M90V, A282L: 38.9 ± 0.6 °C.
For the molecule m7-5: βAR34-424 with M90V, Y227A, the “increase in Tm … (native protein)” value in data set [1] is 13 °C. For the same molecule, the “Tm (° C.)” value in data set [1] (Table 1) was determined as 45.2 ± 1.0 °C.
Take m7-6: βAR34-424 with M90V, I129V: the “Tm (° C.)” value in data set [1] (Table 1) was determined as 40.0 ± 0.6 °C.
Turning to m7-7: βAR34-424 with M90V, Y227A, F338M, the “Tm (° C.)” value in data set [1] (Table 1) was 45.2 ± 2.0 °C.
On to “m10-4: βAR34-424 with R68S, M90V, V230A, A334L”, for which the “Tm (° C.)” value in data set [1] (Table 1) was found to be 46.9 ± 1.0 °C.
In the case of “m10-8: βAR34-424 with R68S, M90V, V230A, F327A, A334L”, the “Tm (° C.)” value in data set [1] (Table 1) stood at 47.3 ± 1.4 °C.
As for “m17: βAR34-424 with R68S, M90V, Y227A, V230A, F327A, A334L”, the “Tm (° C.)” value in data set [1] (Table 2) amounted to 48.2 ± 1.4 °C.
For the molecule “m18: βAR34-424 with R68S, M90V, Y227A, V230A, A282L, F327A, F338M”, the “Tm (° C.)” value in data set [1] (Table 2) is 49.6 °C.
For the molecule “m19: βAR34-424 with R68S, M90V, Y227A, A282L, F327A, F338M as printed (same as m23)”, the “Tm (° C.)” value in data set [1] (Table 2) was 49.0 ± 0.8 °C.
For the molecule “m20: βAR34-424 with R68S, M90V, F327A, A334L”, the “Tm (° C.)” value in data set [1] (Table 2) is 48.4 ± 0.7 °C.
On to “m21: βAR34-424 with R68S, M90V, Y227A, F327A, A334L”, for which the “Tm (° C.)” value in data set [1] (Table 2) was found to be 47.0 ± 1.3 °C.
Regarding “wt: wild-type human adenosine A2a receptor (A2aR)”, the “Tm (° C.) − agonist” value in data set [2] came out at 21 °C. The “Tm (° C.) − antagonist” value in data set [2] came to 31 °C. Moreover, the “Tm (° C.) + agonist” value in data set [2] was found to be 29 °C. Also, the “Tm (° C.) + antagonist” value in data set [2] was found to be 32 °C. Also, in data set [2] (ZM241385 bound), the “Tm (ZM241385 bound)” value came to 31 °C. Further, the “Tm (° C.) Agonist-binding” value was 28 °C in data set [3] (0.003% LDAO); 37 °C in data set [3] (0.006% FC12); 27 °C in data set [3] (0.01% DDM); 23 °C in data set [3] (0.1% DM); “†” in data set [3] (setting [4]); 22 °C in data set [3] (0.3% NM). In addition, the “Tm (° C.) Agonist-binding” value in data set [3] (0.6% OG) was less than 9 °C. Besides, the “Tm (° C.) Antagonist-binding” value in data set [3] (0.003% LDAO) is 32 °C; in data set [3] (0.006% FC12) it was 43 °C; in data set [3] (0.01% DDM), 25 °C; in data set [3] (0.1% DM) it was 10 °C; in data set [3] (setting [4]), “†”; in data set [3] (0.3% NM), less than 4 °C. The “Tm (° C.) Antagonist-binding” value in data set [3] (0.6% OG, † = receptor too unstable to determine the Tm) is reported as “†”.

B1: L208A: A2aR point mutant (protein, UniProt P29274 1-412, looked up, variant L208A)
Adenosine receptor A2a: MPIMGSSVYITVELAIAVLAILGNVLVCWAVWLNSNLQNVTNYFVVSLAAADIAVGVLAIPFAITISTGFCAACHGCLFIACFVLVLTQSSIFSLLAIAIDRYIAIRIPLRYNGLVTGTRAKGIIAICWVLSFAIGLTPMLGWNNCGQPKEGKNHSQGCGEGQVACLFEDVVPMNYMVYFNFFACVLVPLLLMLGVYLRIFLAARRQAKQMESQPLPGERARSTLQKEVHAAKSLAIIVGLFALCWLPLHIINCFTFFCPDCSHAPLWLMYLAIVLSHTNSVVNPFIYAYRIREFRQTFRKIIRSHVLRQQEPFKAAGTSARVLAAHGSDGEQVSLRLNGHPPGVWANGSAPHPERRPNGYALGLVSGGSAQESQGNTGLPDVELLSHELKGVCPEPPGLDDPLAQDGAGVS
Regarding B1, in data set [2], the “thermostability measured with 3H-NECA (agonist)” value (from here on “thermostability measured”) is reported as “improved thermostability”.

B2: Q210A: A2aR point mutant (protein, UniProt P29274 1-412, looked up, variant Q210A)
Adenosine receptor A2a: MPIMGSSVYITVELAIAVLAILGNVLVCWAVWLNSNLQNVTNYFVVSLAAADIAVGVLAIPFAITISTGFCAACHGCLFIACFVLVLTQSSIFSLLAIAIDRYIAIRIPLRYNGLVTGTRAKGIIAICWVLSFAIGLTPMLGWNNCGQPKEGKNHSQGCGEGQVACLFEDVVPMNYMVYFNFFACVLVPLLLMLGVYLRIFLAARRQLKAMESQPLPGERARSTLQKEVHAAKSLAIIVGLFALCWLPLHIINCFTFFCPDCSHAPLWLMYLAIVLSHTNSVVNPFIYAYRIREFRQTFRKIIRSHVLRQQEPFKAAGTSARVLAAHGSDGEQVSLRLNGHPPGVWANGSAPHPERRPNGYALGLVSGGSAQESQGNTGLPDVELLSHELKGVCPEPPGLDDPLAQDGAGVS
Regarding B2, the “thermostability measured” value in data set [2] is “improved thermostability”.

B3: Rag 1: A2aR with A184L/R199A/L272A (protein, UniProt P29274 1-412, looked up, variant A184L R199A L272A)
Adenosine receptor A2a: MPIMGSSVYITVELAIAVLAILGNVLVCWAVWLNSNLQNVTNYFVVSLAAADIAVGVLAIPFAITISTGFCAACHGCLFIACFVLVLTQSSIFSLLAIAIDRYIAIRIPLRYNGLVTGTRAKGIIAICWVLSFAIGLTPMLGWNNCGQPKEGKNHSQGCGEGQVACLFEDVVPMNYMVYFNFFLCVLVPLLLMLGVYLAIFLAARRQLKQMESQPLPGERARSTLQKEVHAAKSLAIIVGLFALCWLPLHIINCFTFFCPDCSHAPLWLMYAAIVLSHTNSVVNPFIYAYRIREFRQTFRKIIRSHVLRQQEPFKAAGTSARVLAAHGSDGEQVSLRLNGHPPGVWANGSAPHPERRPNGYALGLVSGGSAQESQGNTGLPDVELLSHELKGVCPEPPGLDDPLAQDGAGVS
For B3, in data set [2], the “Tm (° C.) − agonist” value amounted to 26 °C and the “Tm (° C.) + agonist” value is 34 °C.

B4: Rant 5: A2aR with A54L/T88A/V239A (protein, UniProt P29274 1-412, looked up, variant A54L T88A V239A)
Adenosine receptor A2a: MPIMGSSVYITVELAIAVLAILGNVLVCWAVWLNSNLQNVTNYFVVSLAAADILVGVLAIPFAITISTGFCAACHGCLFIACFVLVLAQSSIFSLLAIAIDRYIAIRIPLRYNGLVTGTRAKGIIAICWVLSFAIGLTPMLGWNNCGQPKEGKNHSQGCGEGQVACLFEDVVPMNYMVYFNFFACVLVPLLLMLGVYLRIFLAARRQLKQMESQPLPGERARSTLQKEVHAAKSLAIIAGLFALCWLPLHIINCFTFFCPDCSHAPLWLMYLAIVLSHTNSVVNPFIYAYRIREFRQTFRKIIRSHVLRQQEPFKAAGTSARVLAAHGSDGEQVSLRLNGHPPGVWANGSAPHPERRPNGYALGLVSGGSAQESQGNTGLPDVELLSHELKGVCPEPPGLDDPLAQDGAGVS
With B4, in data set [2], the “Tm (° C.) − antagonist” value is 42 °C and the “Tm (° C.) + antagonist” value came to 46 °C.

B5: S213A: A2aR point mutant (protein, UniProt P29274 1-412, looked up, variant S213A)
Adenosine receptor A2a: MPIMGSSVYITVELAIAVLAILGNVLVCWAVWLNSNLQNVTNYFVVSLAAADIAVGVLAIPFAITISTGFCAACHGCLFIACFVLVLTQSSIFSLLAIAIDRYIAIRIPLRYNGLVTGTRAKGIIAICWVLSFAIGLTPMLGWNNCGQPKEGKNHSQGCGEGQVACLFEDVVPMNYMVYFNFFACVLVPLLLMLGVYLRIFLAARRQLKQMEAQPLPGERARSTLQKEVHAAKSLAIIVGLFALCWLPLHIINCFTFFCPDCSHAPLWLMYLAIVLSHTNSVVNPFIYAYRIREFRQTFRKIIRSHVLRQQEPFKAAGTSARVLAAHGSDGEQVSLRLNGHPPGVWANGSAPHPERRPNGYALGLVSGGSAQESQGNTGLPDVELLSHELKGVCPEPPGLDDPLAQDGAGVS
Turning to B5, in data set [2], the “thermostability measured” value is on record as “improved thermostability”.
